In patent US20240002500A1 (GUANGDONG FAPON BIOPHARMA, published 2024):

T1: hTIGIT-hFc (human, UniProt Q495A1 22-141)
T1 construct: also called antigen protein hTIGIT-hFc; human TIGIT recombinant protein carrying a human Fc tag; not shown: human Fc tag
T1 sequence (looked up): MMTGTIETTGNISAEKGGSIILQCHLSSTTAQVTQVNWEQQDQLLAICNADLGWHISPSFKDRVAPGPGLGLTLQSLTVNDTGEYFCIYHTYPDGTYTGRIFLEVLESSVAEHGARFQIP

T2: full-length human TIGIT on cells (human, UniProt Q495A1 22-244)
T2 construct: whole, on cells; The same protein is used for CHO-hTIGIT, PBMC and NK92-hTIGIT; the cells are named under assay; also called CHO-hTIGIT; hTIGIT
T2 sequence (looked up): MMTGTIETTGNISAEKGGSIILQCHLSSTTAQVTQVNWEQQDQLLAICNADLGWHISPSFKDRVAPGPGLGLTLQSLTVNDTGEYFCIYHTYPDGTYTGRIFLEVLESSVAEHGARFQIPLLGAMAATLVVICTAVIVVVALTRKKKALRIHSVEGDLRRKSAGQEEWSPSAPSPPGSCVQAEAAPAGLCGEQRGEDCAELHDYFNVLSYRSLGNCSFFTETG


How the values were obtained:
hTIGIT-hFc [1] = biological target: T1, hTIGIT-hFc; experiment: FACS blocking on U2-OS cells; second row of the table; unit from the y axis
Protocol: (§1) U2-OS cells to be detected (human osteosarcoma cells, naturally and highly expressing PVR and CD112 by means of detection) were counted; centrifugated at 300 g for 5 min; resuspended with an FCM buffer; and cell density was adjusted to 4E+06 cell/mL for later use. […] According to an experimental design, in each well, 50 μL of the antigen protein and 50 μL of the cell (the volume of each cell added into a 96-well V-shaped plate being 2E+05 cell/well) were respectively added in the 96-well V-shaped plate; and incubation was performed in dark on ice for 30 min. Centrifugation (300 g/5 min) was performed; supernatant was discarded; 200 μL of the FCM buffer was added for washing once; centrifugation (300 g/5 min) was performed; and the supernatant was discarded. The antibody was added to the 96-well V-shaped plate (in 100 μL/well); and incubation was performed in dark on ice for 30 min. Centrifugation (300 g/5 min) was performed; supernatant was discarded; 200 μL of the FCM buffer was added for washing once; centrifugation (300 g/5 min) was performed; and the supernatant was discarded. Secondary antibodies (APC anti-human IgG Fc, 1:500 dilution) were added to the 96-well V-shaped plate (in 100 μL/well); and incubation was performed in dark on ice for 30 min. Centrifugation (300 g/5 min) was performed; supernatant was discarded; 200 μL of the FCM buffer was added for washing once; centrifugation (300 g/5 min) was performed; and the supernatant was discarded. 100 μL of the 1×PBS was added for resuspending, and on-machine detection was performed.

[2] = biological target: T2, full-length human TIGIT on cells; experiment: FACS titration on CHO-hTIGIT cells, PE goat anti-mouse IgG
Protocol: (§2) The CHO-engineered cells CHO-hTIGIT cells recombinantly expressing full-length human TIGIT to be detected were counted, centrifuged at 300 g for 5 min, resuspended in an FCM buffer and cell density was adjusted to 4E+06 cell/mL for later use. A sample to be detected (including a positive control antibody and a mouse monoclonal antibody) was diluted with the FCM buffer to 20 μg/mL, and then the FCM buffer was used to perform 3× serial dilutions of 12 concentration points; and the isotype control antibody was diluted with the FCM buffer to 20 μg/mL. According to an experimental design, in each well, 50 μL of the antibody and 50 μL of the cell (the amount of each cell added into a 96-well V-shaped plate being 2E+05 cells/well) were respectively added in the 96-well V-shaped plate; and incubation in dark was performed on ice for 30 min. Centrifugation (300 g/5 min) was performed; supernatant was discarded; 200 μL of the FCM buffer was added for washing once; centrifugation (300 g/5 min) was performed; and the supernatant was discarded. […] Centrifugation (300 g/5 min) was performed; supernatant was discarded; 200 μL of the FCM buffer was added once for washing once; centrifugation (300 g/5 min) was performed; and the supernatant was discarded. 100 μL of the 1×PBS was added for resuspending, and on-machine detection was performed.

hTIGIT-hFc [3] = biological target: T1, hTIGIT-hFc; experiment: FACS blocking: hTIGIT-hFc bound on U2-OS cells (PVR and CD112), then antibody, APC anti-human IgG Fc; first row of the table, row head not given; unit from the x axis Log[µg/mL]
Protocol: as §1

[4] = biological target: T3, full-length cynoTIGIT on CHO cells (monkey (cyno), UniProt A0A7N9I9V4 89-312); experiment: FACS titration on CHO-cynoTIGIT cells, PE goat anti-mouse IgG
T3 construct: whole, on cells; also called CHO-cynoTIGIT; monkey TIGIT
T3 sequence (A0A7N9I9V4 entry or part of it): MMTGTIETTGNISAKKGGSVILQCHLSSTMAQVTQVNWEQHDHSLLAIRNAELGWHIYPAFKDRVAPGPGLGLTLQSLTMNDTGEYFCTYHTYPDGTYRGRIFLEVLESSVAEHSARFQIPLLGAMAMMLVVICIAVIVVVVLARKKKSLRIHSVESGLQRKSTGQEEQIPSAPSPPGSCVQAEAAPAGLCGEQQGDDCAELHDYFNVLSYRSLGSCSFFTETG
Protocol: In order to verify that the anti-human TIGIT antibody binds to a monkey TIGIT, the following experiments were specifically performed. The CHO-engineered cell CHO-cynoTIGIT cells recombinantly expressing full-length […] cynoTIGIT were counted; centrifugated at 300 g for 5 min; resuspended with an FCM buffer; and cell density was adjusted to 4E+06 cell/mL for later use.
Samples to be detected (including a positive control antibody and a mouse monoclonal antibody) were diluted with the FCM buffer to 20 μg/mL, and then the FCM buffer was used to perform 3× serial dilutions of 12 concentration points; and an isotype control antibody was diluted with the FCM buffer to 20 μg/mL. According to an experimental design, in each well, 50 μL of the antibody and 50 μL of the cell (the volume of each cell added into a 96-well V-shaped plate being 2E+05 cell/well) were respectively added in the 96-well V-shaped plate; and incubation was performed in dark on ice for 30 min. Centrifugation (300 g/5 min) was performed; supernatant was discarded; 200 μL of the FCM buffer was added for washing once; centrifugation (300 g/5 min) was performed; and the supernatant was discarded. […] Centrifugation (300 g/5 min) was performed; supernatant was discarded; 200 μL of the FCM buffer was added for washing once; centrifugation (300 g/5 min) was performed; and the supernatant was discarded. 100 μL of the 1×PBS was added for resuspending, and on-machine detection was performed.

[5] = biological target: T2, full-length human TIGIT on cells; experiment: FACS titration on CHO-hTIGIT cells; table under the plot, unit taken from the x axis Log[nM]
Protocol: as §2

| Binder | Span (row head not given) (hTIGIT-hFc [1]) | EC50 [2] | IC50 (hTIGIT-hFc [3]) | EC50 [4] | EC50 [5] |
| --- | --- | --- | --- | --- | --- |
| 3Tigit-16 mouse monoclonal antibody (antibody, V domains shown, Mouse monoclonal antibody from hybridoma) VH: EVQLQQSGPELVKPGASVKMSCKASGFTFTDYFMDWVKQSRGASFEWIGRLNPNNGRTSYNQKFKGKATLTVDKSSSTAYMELNSLTSEDSAVYYCARGDLGRWYFDVWGAGTTVTVSS VL: QIVLTQSPAIMSASPGEKVTMTCSASSSVSYMHWYQQKSGTSPKRWIYDTSKLASGVPTRFSGSGSGTSYSLTISSMEAEDAASYFCQQWSSNSLTFGAGTKLELKR | 580 MFI-APC | 0.383 nM | 0.636 µg/mL | 0.758 nM | 0.294 nM |
| 3Tigit-29 mouse monoclonal antibody (antibody, V domains shown, Mouse monoclonal antibody from hybridoma) VH: EVQLQQSGPELVKPGASVKISCKASGYTFTDYNMHWVKQSLGKSLEWIGYVNSFNGNTGYSQKFKSKVTLTVDRSSRTAYMDLRSLTSEDSAVFYCARSSRGGFAYWGQGTLVTVSA VL: QIVLTQSPAIMSASPGEKVTMTCSASSSVSYMHWYQQKSGTSPKRWIYDTSKLASGVPARFSGSVSGTSYSLTISSMEAEDAATYYCQQWSSNSLTFGAGTKLELKR | 585 MFI-APC | 0.388 nM | 0.628 µg/mL | 0.506 nM | 0.31 nM |
| 14Tigit-1-1 mouse monoclonal antibody (antibody, V domains shown, Mouse monoclonal antibody from hybridoma) VH: DVQLQESGPGLVKPSQSLSLTCTVTGYSITSDYAWNWIRQFPGNKLEWMGYISYSGSTRSNPSLKSRISITRDTSKNQFFLQLNSMTAEDTATYYCGGWEVRNYYAMDYWGQGTSVTVSS VL: DIVMTQSHKFMSTSVGDRVSITCKASQHVSTAVAWYQQKPGQSPKLLIYSASYRYTGVPDRFTGSGSGTDFTFTISSVQAEDLAVYYCQQHYNTPWTFGGGTKLEIKR |  | 0.452 nM |  |  |  |

More lines, in order of falling EC50 [2], values ahead:

| Span (row head not given) (hTIGIT-hFc [1]) | EC50 [2] | IC50 (hTIGIT-hFc [3]) | EC50 [4] | EC50 [5] | Binder |
| --- | --- | --- | --- | --- | --- |
| 555 MFI-APC | 0.473 nM | 0.543 µg/mL | 0.354 nM |  | 3Tigit-12 mouse monoclonal antibody (antibody, V domains shown, Mouse monoclonal antibody from hybridoma) VH: QVQLQQSGAELVRPGTSVKMSCKAAGYTFTNYWIGWVKQRPGHGLEWIGDIYPGGGYTNYDEKFKGKATLTADTSSRTAYMQLSSLTSEDSAIYHCVNGGYGSTYGYFDVWGAGTTVTVSS VL: DIVMSQSPSSLPVSVGEKVTMSCKSSQSLLFSSDQKNYLAWYQQKPGQSPKLLIYWASTRESGVPDRLTGSGSGTDFTLTISSVKAEDLAVYYCQQYHKYPFTFGGGTKLEIKR |
|  | 0.197 nM |  | 0.426 nM | 0.256 nM | Tigit-5 mouse monoclonal antibody (antibody, V domains shown, Mouse monoclonal antibody from hybridoma) VH: QVQLQQPGAELVRPGASVKLSCKASGYSFTSYWMNWVKQRPGQGLEWIGMIRPSDSETRLNQMFKDKATLTVDKSSSTAYMQLSSPTSDDSAVYYCAGIHDYGHGAYWGQGTLVTVSA VL: DIQMIQSPASLSVSVGETVTITCRASENIYSNLAWYQQKQGKSPQLLVYAASHLPDGVPSRFSGSGSGTQYSLKINSLQSEDFGSYYCQHFWGTPRTFGGGTKLEIKR |
